Patent US20170334962A1 (TEXAS A AND M UNIVERSITY SYSTEM, published 2017)
Where a chain is given by its changes, count along the chain named. In names and notes the source's numbering stands.

Experiments:
[1] = target: T1, recombinant soluble mouse FcRn (mouse, UniProt Q61559 22-290; P01887 21-119, limits assumed); experiment: SPR (BIAcore T200), fusion immobilized on a CM5 chip, mFcRn as analyte, pH 6.0; value for the higher affinity site; pH 6.0
T1 construct: also called mFcRn
T1 sequence (looked up) 1: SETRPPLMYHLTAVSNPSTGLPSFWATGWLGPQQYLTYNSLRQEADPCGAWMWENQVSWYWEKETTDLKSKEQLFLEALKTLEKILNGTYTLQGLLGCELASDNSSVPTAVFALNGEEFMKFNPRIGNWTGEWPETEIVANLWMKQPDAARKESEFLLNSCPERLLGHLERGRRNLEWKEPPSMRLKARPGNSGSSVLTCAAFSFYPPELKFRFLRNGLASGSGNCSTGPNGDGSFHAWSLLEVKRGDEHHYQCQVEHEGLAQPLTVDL
T1 sequence (looked up) 2: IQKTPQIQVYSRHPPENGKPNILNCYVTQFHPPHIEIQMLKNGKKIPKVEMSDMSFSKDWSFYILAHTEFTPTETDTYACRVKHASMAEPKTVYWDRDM
Experimental: (§1) Equilibrium dissociation constants (KDs) for the binding of Fc-OVA(323-339) (WT, TT-HN and H435A) to recombinant mouse FcRn were determined using surface plasmon resonance (BlAcore T200; GE Healthcare) and previously described methods. CM5 chips were coupled with recombinant Fc(WT)-OVA(323-339), Fc(TT-HN)-OVA(323-339), and Fc(H435A)-OVA(323-339) to densities of ˜500-900 RU followed by injection of mFcRn at various concentrations (1-2000 nM) at a flow rate of 10 μl/min using PBS (pH 6.0 or 7.4; Lonza), 0.01% (v/v) Tween-20 as running buffer. Flow cells were regenerated at the end of each cycle using 0.15 M NaCl, 0.1 M sodium bicarbonate (pH 8.5) buffer. FcRn binds to two sites on IgG-Fc that are not equivalent. […] The data were processed as described previously.

[2] = target: T1, recombinant soluble mouse FcRn; experiment: SPR (BIAcore T200), fusion immobilized on a CM5 chip, mFcRn as analyte, pH 6.0
Experimental: as §1

[3] = target: T1, recombinant soluble mouse FcRn; experiment: SPR (BIAcore T200), fusion immobilized on a CM5 chip, mFcRn as analyte, pH 6.0; value for the higher affinity site
Experimental: as §1

[4] = target: T1, recombinant soluble mouse FcRn; experiment: SPR (BIAcore T200), fusion immobilized on a CM5 chip, mFcRn as analyte, pH 7.4; value for the higher affinity site
Experimental: as §1

[5] = target: T1, recombinant soluble mouse FcRn; experiment: SPR (BIAcore 2000), Fc-hinge immobilized by amine coupling, soluble mouse FcRn as analyte, pH 6.0; value for the higher affinity site; pH 6.0
Experimental: (§2) Equilibrium dissociation constants of WT and mutated mouse Fc-hinge fragments (IgG1-derived) for binding to recombinant mouse FcRn were determined using surface plasmon resonance and a BlAcore 2000. Mouse Fc-hinge fragments were immobilized by amine coupling chemistry (to a density of ˜250-850 RU) and BlAcore experiments carried out as described previously, using soluble mouse FcRn in Dulbecco's phosphate-buffered saline (DPBS) plus 0.01% Tween pH 6.0 or 7.4 as analyte. FcRn binds to two sites on IgG that are not equivalent. […] The data were processed as described previously.

[6] = target: T1, recombinant soluble mouse FcRn; experiment: SPR (BIAcore 2000), Fc-hinge immobilized by amine coupling, soluble mouse FcRn as analyte, pH 6.0; value for the higher affinity site
Experimental: as §2

[7] = target: T1, recombinant soluble mouse FcRn; experiment: SPR (BIAcore 2000), Fc-hinge immobilized by amine coupling, soluble mouse FcRn as analyte, pH 7.4; value for the higher affinity site
Experimental: as §2

B1: mIgG1-Fc(WT)-OVA(323-339) (Fc fusion)
chain: VPRDCGCKPCICTVPEVSSVFIFPPKPKDVLTITLTPKVTCVVVDISKDDPEVQFSWFVDDVEVHTAQTQPREEQFNSTFRSVSELPIMHQDWLNGKEFKCRVNSAAFPAPIEKTISKTKGRPKAPQVYTIPPPKEQMAKDKVSLTCMITDFFPEDITVEWQWNGQPAENYKNTQPIMDTDGSYFVYSKLNVQKSNWEAGNTFTCSVLHEGLHNHHTEKSLSHSPGKGSGGISQAVHAAHAEINEAGRGSGHHHHHH
Kd [1]: 300 nM

B2: mIgG1-Fc(H435A)-OVA(323-339) (Fc fusion)
chain: B1 chain with H215A
notes: The limits of the leader are inferred as for m4
binding result [2]: no binding (tested: mFcRn injected at 1-2000 nM)

B3: mIgG1-Fc(TT-HN)-OVA(323-339) (Fc fusion)
chain: B1 chain with T32Y, T36E, H213K, N214F
notes: The limits of the leader are inferred as for m4; also called Fc(T252Y/T256E/H433K/N434F)-antigen
Kd [3]: 3 nM
Kd [4]: 14.9 nM

B4: WT mouse Fc-hinge fragment (IgG1-derived) (other, UniProt P01868 98-324, looked up)
chain: VPRDCGCKPCICTVPEVSSVFIFPPKPKDVLTITLTPKVTCVVVDISKDDPEVQFSWFVDDVEVHTAQTQPREEQFNSTFRSVSELPIMHQDWLNGKEFKCRVNSAAFPAPIEKTISKTKGRPKAPQVYTIPPPKEQMAKDKVSLTCMITDFFPEDITVEWQWNGQPAENYKNTQPIMNTNGSYFVYSKLNVQKSNWEAGNTFTCSVLHEGLHNHHTEKSLSHSPGK
notes: domain: Fc-hinge; Recombinant Fc-hinge made in CHO-S cells by methods analogous to those for the Fc-MBP fusions; also called WT Fc-hinge
Kd [5]: 218 nM

B5: m-set-1 mouse Fc-hinge fragment (IgG1-derived; T252L/T254S/T256F/E380A/H433K/N434F) (other, UniProt P01868 98-324, looked up)
chain: B4 chain with T32L, T34S, T36F, E160A, H213K, N214F
notes: domain: Fc-hinge; also called mutation-set-1
Kd [6]: 2.6 nM
Kd [7]: 115 nM

B6: m-set-2 mouse Fc-hinge fragment (IgG1-derived; T252Y/T256E/H433K/N434F) (other, UniProt P01868 98-324, looked up)
chain: B4 chain with T32Y, T36E, H213K, N214F
notes: domain: Fc-hinge; also called mutation-set-2; TT-HN
Kd [6]: 1.1 nM
Kd [7]: 20.4 nM
